In one test the target is BPTF bromodomain (Homo sapiens, UniProt Q12830). Conditions: cited from earlier work.
The target in another test is PfGCN5 bromodomain (Plasmodium falciparum, UniProt Q8IB67). The test is described as follows: 1H-15N HSQC NMR titration with PfGCN5. Type of test: binding. The following applies: 1H-15N HSQC titration (Figure S14); read-out: Kd PfGCN5. From the text:
To cross-validate our findings, ^1H-^15N HSQC NMR was used to further examine the binding mode of 9 to PfGCN5 in the presence and absence of known ligands. The ^1H-^15N HSQC spectrum of PfGCN5 is unassigned. For ease of spectral interpretation, all resonances that were distinctly visible were assigned as 1-64. Fragment 9, GSK4027, and the acetylated peptide H2A.Z II K7,13ac were titrated against PfGCN5. At the highest ligand concentration, resonances with Δδ > x^− + 0.60*s, where x^− is the mean and s is the standard deviation at the highest concentration, were defined as significant. The correction factor of 0.60 is to compensate for only 60% of the resonances being usable for analysis. Titration of 9 with PfGCN5 gave linear and non-linear dose-dependent chemical shift perturbations. Of the five resonances with non-linear movement, only one (10) was considered to have significant movement. […] This affinity with the non-fluorine-labeled protein is similar but higher than the affinity determined by PrOF NMR. […]
^1H-^15N SOFAST HSQC.^1H-^15N SOFAST HSQC spectra were obtained on a Bruker 600 MHz Avance NEO with a CryoProbe 5 mm TCI (^1H, ^13C, ^15N, ^2H) w/ Z-gradient using Bruker’s IBS_SOFAST.x method with 32 scans, 0.05 s acquisition time, and 0.2 s delay. […] Data were processed with nmrDraw, nmrPipe, and NFRAM Sparky. Δδ^1H-^15N was calculated using Equation (3). […]

Sequence of PfGCN5 bromodomain (Q8IB67 entry or part of it): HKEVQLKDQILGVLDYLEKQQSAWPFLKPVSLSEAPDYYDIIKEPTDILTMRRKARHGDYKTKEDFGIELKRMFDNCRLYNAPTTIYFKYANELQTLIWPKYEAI

Take “H2A.Z II K7,13ac peptide N-terminal tail (from UniProt Q71UI9)”: the dissociation constant (Kd) with BPTF bromodomain is 310 µM.
Regarding “H2A.Z II K7,13ac: acetylated N-terminal tail peptide of a histone protein (AGGKAGKDSGKAKAK; acetyl-Lys7 and acetyl-Lys13 in mature numbering (UniProt K8 and K14); C-terminal amide expected from NovaSyn TGR resin) [reference compound]”, in the test with PfGCN5 bromodomain, the Kd turned out to be 670 µM.

Source of the values: article PMC7504435, “Combined Protein- and Ligand-Observed NMR Workflow to Screen Fragment Cocktails against Multiple Proteins: A Case Study Using Bromodomains” (Molecules, 2020).
